Laboratory results taken from patent US20250027068.
Positions count from the first letter of the chain named.

B1: PRT-295 (protein)
chain: MVTSVWTKGVTPPADFTQGEDVFHAPYDANQGWYDITKTFNGKDDLLCGAATAGNMLHWWFDQNKEYIEAYLKKHPEKQKIMFGDQELLDVRKAINTKGSQKNSELFNYFRDKAFPNLSARRLGVMPDLVLDMFINGYYLNVTKTQTTDVNRTYQEKDKRGGIFDAVFTRGDQSKLLTSRHDFKEKGLKEISDLIKQELTEGKALGLSHTYANVRISHVINLWGADFDSDGNLKAIYVTDSDSNASIGMKKYFVGVNSSGKVAISAKEIKEDNIGAQVLGLFTLSTGQDIWNQTN
B2: PRT-303 (protein)
chain: B1 chain with A14T, T17I, Q18K, N30G, F253G, S259A
B3: PRT-311 (protein)
chain: MQITSVWTKGVTPLTPEQFRENNEDVIHAPYLAHQGWYDITKAFDGKDNLLCGAATAGNMLHWWFDQNKTEIEAYLSKHPEKQKIIFNNQEWFDLKAAIDTKDSQTNSQLFNYFRDKAFPNLSARQLGVMPDLVLDMFINGYYLNVPKTQSTDVNRPYQDKDKRGGIFDAVFTRGDQTTLLTARHDLKNKGLNDISTIIKQELTEGRALALSHTYANVSISHVINLWGADFNAEGNLEAIYVTDSDANASIGMKKYAVGINAHGHVAISAKKIEGENIGAQVLGLFTLSSGKDIWQKLS
B4: PRT-319 (protein)
chain: MTITSVWTKGVTPPTPEDFRENNEDVLHAPYVANQGWYDITKTFDGKDNLLCGAATAGNMLHWWFDQNKEEIERYLKKHPEKQKIIFNNQELFDVKAAIDTKDSQTNSKLFDYFRDKAFPNLSARQLGVMPDLVLDMFINGYYLNLGKTQSTDVNRPYQDKDKRGGIFDAVFTRGDQTTLLTARHDLKNKGLNEISDLIKQELTEGKALALSHTYANVRINHVINLWGADFDAEGNLIAIYVTDSDANASIGMKKYFVGRNANGKVAISAKKIEGDNIGAQVLGLFTLSLGQDIWQKLS
B5: PRT-327 (protein)
chain: B4 chain with N236E, A249P, L290T
B6: PRT-296 (protein)
chain: B1 chain with D28V, T39E, S217G, F253G, S259A
B7: PRT-304 (protein)
chain: B1 chain with A14T, T17I, Q18K, N30G
B8: PRT-312 (protein)
chain: B3 chain with N88G, W92L, P147G, A249P, A257F, I260R
B9: PRT-320 (protein)
chain: B4 chain with N88G, L290T, I294Q
B10: PRT-328 (protein)
chain: B4 chain with E21K, D112N, N121G, M130F, D176V, L290T
B11: PRT-334 (protein)
chain: B4 chain with N88G, N121G, M130F, D176V, N236E, A249P, L290T
B12: PRT-342 (protein)
chain: B4 chain with V32L, T43A, N88G, D112N, R219S, I238E, A249P, N263H, L290T
B13: PRT-350 (protein)
chain: MSQTEDSESLQRLRDIEDFQAEKKDQNVVYTKWLDGVDVKDHDFRKIVDGNSAYYATPLLNGRGWYDINKDFNRDSDKCAAAVAANMFHYWLDINRDNVDRFLRQNPEKHGIIELPDGQLKLSDFLNTYESDHGYRDKSKLFDFISENFNGPVWTDKLLDNYINGYAYNYKYGRTIEDPTKNTSKINFFKEVFNEKILTNNHSIRNQNEFSVLLIEALYTGKAIGLSYGPAGLRHSLGHIISVWGADLDADGNVVAIYVTDSDDKKLTIGDERVGLKRYKISTDDENRLRLTAYEETHNTGGQVRGLWTLDTGKYAWADYFDKTEQTGTDQAEQ
B14: PRT-358 (protein)
chain: B13 chain with S52I, I94R, H133D, N287G, Y315Q
B15: PRT-366 (protein)
chain: MSQTEDSESLQRLRDIEDFQAEKEKQNVVYTKWLDGVDVKDHDFRKIVDGNSAYYATPLLNGRGFYDINKDFNRDNDKCAAAVAANMFHYWLDRNRDNVDRFLRQNPEKHGIIELPDGQLKLSDFLNTYESDDGYRDKSKLFDFISNNFNGPVWTDKLLDNYINGYAYNYKYGRTIEDSTKNTSKINFFKEVFNEKILTNNHSIRNQNEFSVLLSEALYTGKAIGLSYGPAGLRHSLGHIISVWGADLDADGNVVAIYVTDSDDKKLTIGDERVGLKRYKISTDDEGRLRLTAYEETHNTGGQVRGLWTLDTGKQAWADYFDKTEQTGTDQAEQ
B16: PRT-335 (protein)
chain: B4 chain with N88G, N121G, M130F, D176V, N236E, A249P, L290T, I294Q
B17: PRT-343 (protein)
chain: B4 chain with V32L, T43A, N88G, R219S, N236E, I238E, A249P, N263H, L290T
B18: PRT-351 (protein)
chain: B13 chain with D25M, W65F, V304I
B19: PRT-359 (protein)
chain: B15 chain with E24K, K25D, S52I, F65L, N76S, N147E, S179P, F210L
B20: PRT-367 (protein)
chain: B15 chain with F65W

Target: pooled human IgG (human IgG1,2,3 and 4)

What does the source list for B1?
Enzyme Activity Endpoint Assay (purified): Fab'2: 529 ng/µL; Enzyme Activity Endpoint Assay (purified): Fc: 398 ng/µL; Enzyme Activity Endpoint Assay (purified): IgG: 446 ng/µL; Enzyme Activity Endpoint Assay (purified): scIgG: 0 ng/µL

What does the source list for B2?
Enzyme Activity Endpoint Assay (purified): Fab'2: 1080 ng/µL; Enzyme Activity Endpoint Assay (purified): Fc: 482 ng/µL; Enzyme Activity Endpoint Assay (purified): IgG: 0 ng/µL; Enzyme Activity Endpoint Assay (purified): scIgG: 0 ng/µL

Which results are given for B3?
Enzyme Activity Endpoint Assay (purified): Fab'2: 261 ng/µL; Enzyme Activity Endpoint Assay (purified): Fc: 295 ng/µL; Enzyme Activity Endpoint Assay (purified): IgG: 109 ng/µL; Enzyme Activity Endpoint Assay (purified): scIgG: 496 ng/µL

With B4 as the protein, how does the Enzyme Activity Endpoint Assay (purified): Fab'2 read?
Its Enzyme Activity Endpoint Assay (purified): Fab'2 is 670 ng/µL.

What about the Enzyme Activity Endpoint Assay (purified): Fc of the same protein?
Its Enzyme Activity Endpoint Assay (purified): Fc is 372 ng/µL.

And the Enzyme Activity Endpoint Assay (purified): IgG?
Its Enzyme Activity Endpoint Assay (purified): IgG is 32 ng/µL.

And the Enzyme Activity Endpoint Assay (purified): scIgG?
The Enzyme Activity Endpoint Assay (purified): scIgG was 0 ng/µL.

With B5 as the protein, how does the Enzyme Activity Endpoint Assay (purified): Fab'2 read?
The Enzyme Activity Endpoint Assay (purified): Fab'2 was 460 ng/µL.

And the Enzyme Activity Endpoint Assay (purified): Fc?
The Enzyme Activity Endpoint Assay (purified): Fc was 338 ng/µL.

What about the Enzyme Activity Endpoint Assay (purified): IgG of the same protein?
The Enzyme Activity Endpoint Assay (purified): IgG was 472 ng/µL.

And the Enzyme Activity Endpoint Assay (purified): scIgG?
The Enzyme Activity Endpoint Assay (purified): scIgG was 0 ng/µL.

What does the source list for B6?
Enzyme Activity Endpoint Assay (purified): Fab'2: 955 ng/µL; Enzyme Activity Endpoint Assay (purified): Fc: 443 ng/µL; Enzyme Activity Endpoint Assay (purified): IgG: 0 ng/µL; Enzyme Activity Endpoint Assay (purified): scIgG: 0 ng/µL

Which results are given for B7?
Enzyme Activity Endpoint Assay (purified): Fab'2: 711 ng/µL; Enzyme Activity Endpoint Assay (purified): Fc: 320 ng/µL; Enzyme Activity Endpoint Assay (purified): IgG: 0 ng/µL; Enzyme Activity Endpoint Assay (purified): scIgG: 0 ng/µL

Which Enzyme Activity Endpoint Assay (purified): Fab'2 does the source give for B8 here?
The Enzyme Activity Endpoint Assay (purified): Fab'2 was 703 ng/µL.

What about the Enzyme Activity Endpoint Assay (purified): Fc of the same protein?
Its Enzyme Activity Endpoint Assay (purified): Fc is 330 ng/µL.

And the Enzyme Activity Endpoint Assay (purified): IgG?
Its Enzyme Activity Endpoint Assay (purified): IgG is 53 ng/µL.

What about the Enzyme Activity Endpoint Assay (purified): scIgG of the same protein?
Its Enzyme Activity Endpoint Assay (purified): scIgG is 54 ng/µL.

Which results are given for B9?
Enzyme Activity Endpoint Assay (purified): Fab'2: 778 ng/µL; Enzyme Activity Endpoint Assay (purified): Fc: 339 ng/µL; Enzyme Activity Endpoint Assay (purified): IgG: 53 ng/µL; Enzyme Activity Endpoint Assay (purified): scIgG: 0 ng/µL

B10 was tested. Which Enzyme Activity Endpoint Assay (purified): Fab'2 did it give?
The Enzyme Activity Endpoint Assay (purified): Fab'2 was 1000 ng/µL.

And the Enzyme Activity Endpoint Assay (purified): Fc?
The Enzyme Activity Endpoint Assay (purified): Fc was 455 ng/µL.

What about the Enzyme Activity Endpoint Assay (purified): IgG of the same protein?
The Enzyme Activity Endpoint Assay (purified): IgG was 75 ng/µL.

What about the Enzyme Activity Endpoint Assay (purified): scIgG of the same protein?
Its Enzyme Activity Endpoint Assay (purified): scIgG is 0 ng/µL.

Which Enzyme Activity Endpoint Assay (purified): Fab'2 does the source give for B11 here?
The Enzyme Activity Endpoint Assay (purified): Fab'2 was 59 ng/µL.

What about the Enzyme Activity Endpoint Assay (purified): Fc of the same protein?
The Enzyme Activity Endpoint Assay (purified): Fc was 257 ng/µL.

What about the Enzyme Activity Endpoint Assay (purified): IgG of the same protein?
The Enzyme Activity Endpoint Assay (purified): IgG was 154 ng/µL.

And the Enzyme Activity Endpoint Assay (purified): scIgG?
The Enzyme Activity Endpoint Assay (purified): scIgG was 738 ng/µL.

Which Enzyme Activity Endpoint Assay (purified): Fab'2 does the source give for B12 here?
Its Enzyme Activity Endpoint Assay (purified): Fab'2 is 15 ng/µL.

And the Enzyme Activity Endpoint Assay (purified): Fc?
The Enzyme Activity Endpoint Assay (purified): Fc was 209 ng/µL.

And the Enzyme Activity Endpoint Assay (purified): IgG?
The Enzyme Activity Endpoint Assay (purified): IgG was 206 ng/µL.

And the Enzyme Activity Endpoint Assay (purified): scIgG?
Its Enzyme Activity Endpoint Assay (purified): scIgG is 841 ng/µL.

Which Enzyme Activity Endpoint Assay (purified): Fab'2 does the source give for B13 here?
The Enzyme Activity Endpoint Assay (purified): Fab'2 was 520 ng/µL.

And the Enzyme Activity Endpoint Assay (purified): Fc?
Its Enzyme Activity Endpoint Assay (purified): Fc is 243 ng/µL.

And the Enzyme Activity Endpoint Assay (purified): IgG?
The Enzyme Activity Endpoint Assay (purified): IgG was 668 ng/µL.

What about the Enzyme Activity Endpoint Assay (purified): scIgG of the same protein?
The Enzyme Activity Endpoint Assay (purified): scIgG was 200 ng/µL.

Which results are given for B14?
Enzyme Activity Endpoint Assay (purified): Fab'2: 8 ng/µL; Enzyme Activity Endpoint Assay (purified): Fc: 90 ng/µL; Enzyme Activity Endpoint Assay (purified): IgG: 86 ng/µL; Enzyme Activity Endpoint Assay (purified): scIgG: 375 ng/µL

Which results are given for B15?
Enzyme Activity Endpoint Assay (purified): Fab'2: 0 ng/µL; Enzyme Activity Endpoint Assay (purified): Fc: 122 ng/µL; Enzyme Activity Endpoint Assay (purified): IgG: 777 ng/µL; Enzyme Activity Endpoint Assay (purified): scIgG: 472 ng/µL

Which Enzyme Activity Endpoint Assay (purified): Fab'2 does the source give for B16 here?
The Enzyme Activity Endpoint Assay (purified): Fab'2 was 38 ng/µL.

What about the Enzyme Activity Endpoint Assay (purified): Fc of the same protein?
The Enzyme Activity Endpoint Assay (purified): Fc was 154 ng/µL.

And the Enzyme Activity Endpoint Assay (purified): IgG?
The Enzyme Activity Endpoint Assay (purified): IgG was 74 ng/µL.

What about the Enzyme Activity Endpoint Assay (purified): scIgG of the same protein?
The Enzyme Activity Endpoint Assay (purified): scIgG was 514 ng/µL.

Which results are given for B17?
Enzyme Activity Endpoint Assay (purified): Fab'2: 154 ng/µL; Enzyme Activity Endpoint Assay (purified): Fc: 266 ng/µL; Enzyme Activity Endpoint Assay (purified): IgG: 129 ng/µL; Enzyme Activity Endpoint Assay (purified): scIgG: 682 ng/µL

For B18, which Enzyme Activity Endpoint Assay (purified): Fab'2 is on record?
The Enzyme Activity Endpoint Assay (purified): Fab'2 was 37 ng/µL.

What about the Enzyme Activity Endpoint Assay (purified): Fc of the same protein?
The Enzyme Activity Endpoint Assay (purified): Fc was 191 ng/µL.

And the Enzyme Activity Endpoint Assay (purified): IgG?
The Enzyme Activity Endpoint Assay (purified): IgG was 86 ng/µL.

What about the Enzyme Activity Endpoint Assay (purified): scIgG of the same protein?
Its Enzyme Activity Endpoint Assay (purified): scIgG is 638 ng/µL.

B19 was tested. Which Enzyme Activity Endpoint Assay (purified): Fab'2 did it give?
Its Enzyme Activity Endpoint Assay (purified): Fab'2 is 260 ng/µL.

And the Enzyme Activity Endpoint Assay (purified): Fc?
The Enzyme Activity Endpoint Assay (purified): Fc was 340 ng/µL.

And the Enzyme Activity Endpoint Assay (purified): IgG?
Its Enzyme Activity Endpoint Assay (purified): IgG is 202 ng/µL.

And the Enzyme Activity Endpoint Assay (purified): scIgG?
Its Enzyme Activity Endpoint Assay (purified): scIgG is 677 ng/µL.

How did the Enzyme Activity Endpoint Assay (purified): Fab'2 turn out when B20 was run?
The Enzyme Activity Endpoint Assay (purified): Fab'2 was 351 ng/µL.

What about the Enzyme Activity Endpoint Assay (purified): Fc of the same protein?
Its Enzyme Activity Endpoint Assay (purified): Fc is 361 ng/µL.

What about the Enzyme Activity Endpoint Assay (purified): IgG of the same protein?
The Enzyme Activity Endpoint Assay (purified): IgG was 100 ng/µL.

What about the Enzyme Activity Endpoint Assay (purified): scIgG of the same protein?
The Enzyme Activity Endpoint Assay (purified): scIgG was 518 ng/µL.
